According to patent US20130260458A1, “METHOD OF INDUCING DIFFERENTIATION OF HUMAN PLURIPOTENT STEM CELL INTO HEPATIC PROGENITOR CELL” (NATIONAL UNIVERSITY CORPORATION CHIBA UNIVERSITY, priority 2012, published 2013):
“Also recorded” adds a separate entry of the source.

Tests used:
[1] = tested on: Human iPS cells (201B7); test: Expression of transcription factors in iPS cells cultured with single growth-promoting agents (RT-PCR, electrophoresis); assay type: cell-based; conditions: iPS cells in iPSm(−) medium with the growth-promoting agent added; PCR and electrophoresis, FIG. 2
Method: Reverse transcriptase (Life Technologies Japan Ltd.) was used to synthesize cDNAs of iPS cells, fetal hepatic cells and adult hepatic cells from 3 μg of RNA. The cDNAs were subjected to polymerase chain reaction (PCR) using the following primers to GATA4, FOXA2, HEX, C/EBPα and C/EBPβ, respectively, and to electrophoresis using 2% low-melting agarose (Lonza) and 1×TAE, for investigations on the expression of GATA4, FOXA2, HEX, C/EBPα and C/EBNβ in the iPS cells, fetal hepatic cells and adult hepatic cells.
After electrophoresis, the 2% low-melting agarose was irradiated with ultraviolet rays at 254 nm from a UV transilluminator (UVP LLC, NLMS-20E), and a Polaroid photograph (FUJIFILM Corporation, FP-3000B) thereof was taken with a gel camera (Funakoshi DS-300) to analyze an electrophoretic pattern.
PCR cycles performed included 30 cycles of thermal denaturation: 1 minute at 94° C.; annealing: 1 minute and elongation reaction: 1 minute at 72° C.
Human iPS cells (201B7, RIKEN cell bank) were seeded onto a matrigel-coated 6-well plate, and cultured in a feeder-less medium, ReproFF (trade name, Reprocell Inc.) for culture of stem cells maintained in an undifferentiated state, without using a feeder cell, under conventional conditions: 37° C. and 5% carbon dioxide.
A medium obtained by adding a 20% knock-out serum replacement (Life Technologies Japan Ltd.), 10% Minimum Essential Amino Acids (Life Technologies Japan Ltd.), 2 mM of L-glutamine (Life Technologies Japan Ltd.) and 1 mM of 2-mercaptoethanol to a D-MEM/F12 medium (Dulbecco's Modified Eagle Medium-F12 medium, Sigma-Aldrich Japan) was used as an iPSm(−) medium.
The following growth-promoting agents were added to the iPSm(−) medium, and SOX-17, GATA6, FOXA2, GATA4, HEX, TTR and C/EBPα were expressed in a manner similar to that in Experiment 1.
As the growth-promoting agents, added were bFGF (basic fibroblast growth factor, Wako Pure Chemical Industries, Ltd.), BMP (bone morphogenetic protein)-4 (Wako Pure Chemical Industries, Ltd.), oncostatinM (Wako Pure Chemical Industries, Ltd.), an epidermal growth factor (EGF, Wako Pure Chemical Industries, Ltd.), a nerve growth factor (NGF, R & D Systems, Inc.), TGF-β, (transform growth factor-β, R& D Systems, Inc.), retinoic acid (Sigma-Aldrich Japan) and a hepatic cell growth factor (HGF, Sigma-Aldrich Japan).
RT-PCR to SOX-17, GATA6 and TTR was performed under the following conditions.

[2] = tested on: Human iPS cells (201B7); test: Induction of differentiation into hepatic progenitor cells by growth-promoting agents (real-time quantitative PCR of AFP and DLK-1); assay type: cell-based; conditions: iPS cells transfected with FOXA2, GATA4, HEX, C/EBPα three times every three days, 8th day, n=3, ± standard error, ReproFF lane = 100
Method: Human iPS cells (201B7, RIKEN cell bank) were seeded onto a matrigel-coated 6-well plate, and cultured in a medium, ReproFF in accordance with a conventional method under the following conditions: 37° C. and 5% carbon dioxide. A lipofection reagent, Lipofectamine LTX (registered trade mark, Life Technologies Japan Ltd.) was used to transfect 0.5 μg of expression plasmids of FOXA2, GATA4, HEX and C/EBPα, respectively. […]
The transfection of the transcription factors was repeated three times every three days, and, on the 8th day, RNA was extracted using Isogen (NIPPON GENE CO., LTD.). […] Then, the amount of expressed α-fetoprotein (AFP), which was an indicator of hepatic progenitor cells, was analyzed by the real-time quantitative PCR method using a real-time PCR analysis reagent, Fast SYBR Green Master Mix (trade name, Life Technologies Japan Ltd.). […] The amounts of α-fetoprotein (AFP) and Delta-like (DLK)-1 expressed were quantitatively determined as an indicator of hepatic progenitor cells by employing ribosome-related protein (RLP19) as internal standard (each group, n=3).
The real-time quantitative PCR was performed by using the following primers through a PCR cycle including 30 cycles of 5 seconds at 95° C. and 20 seconds at 60° C.

B1: oncostatin M (protein, UniProt P13725 26-221, looked up)
Oncostatin-M: AAIGSCSKEYRVLLGQLQKQTDLMQDTSRLLDPYIRIQGLDVPKLREHCRERPGAFPSEETLRGLGRRGFLQTLNATLGCVLHRLADLEQRLPKAQDLERSGLNIEDLEKLQMARPNILGLRNNIYCMAQLLDNSDTAEPTKAGRGASQPPTPTPASDAFQRKLEGCRFLHGYHRFMHSVGRVFSKWGESPNRSRR
notes: growth factor used as growth-promoting agent (Wako Pure Chemical Industries)
- expression of C/EBPα [1]: slightly expressed; also recorded: not observed to be expressed
- expression of FOXA2 [1]: not observed to be expressed
- expression of GATA4 [1]: not observed to be expressed
- expression of HEX [1]: not observed to be expressed
- expression of SOX-17 [1]: observed to be expressed

B2: epidermal growth factor (protein, UniProt P01133 23-1207, looked up)
Pro-epidermal growth factor: PQHWSCPEGTLAGNGNSTCVGPAPFLIFSHGNSIFRIDTEGTNYEQLVVDAGVSVIMDFHYNEKRIYWVDLERQLLQRVFLNGSRQERVCNIEKNVSGMAINWINEEVIWSNQQEGIITVTDMKGNNSHILLSALKYPANVAVDPVERFIFWSSEVAGSLYRADLDGVGVKALLETSEKITAVSLDVLDKRLFWIQYNREGSNSLICSCDYDGGSVHISKHPTQHNLFAMSLFGDRIFYSTWKMKTIWIANKHTGKDMVRINLHSSFVPLGELKVVHPLAQPKAEDDTWEPEQKLCKLRKGNCSSTVCGQDLQSHLCMCAEGYALSRDRKYCEDVNECAFWNHGCTLGCKNTPGSYYCTCPVGFVLLPDGKRCHQLVSCPRNVSECSHDCVLTSEGPLCFCPEGSVLERDGKTCSGCSSPDNGGCSQLCVPLSPVSWECDCFPGYDLQLDEKSCAASGPQPFLLFANSQDIRHMHFDGTDYGTLLSQQMGMVYALDHDPVENKIYFAHTALKWIERANMDGSQRERLIEEGVDVPEGLAVDWIGRRFYWTDRGKSLIGRSDLNGKRSKIITKENISQPRGIAVHPMAKRLFWTDTGINPRIESSSLQGLGRLVIASSDLIWPSGITIDFLTDKLYWCDAKQSVIEMANLDGSKRRRLTQNDVGHPFAVAVFEDYVWFSDWAMPSVMRVNKRTGKDRVRLQGSMLKPSSLVVVHPLAKPGADPCLYQNGGCEHICKKRLGTAWCSCREGFMKASDGKTCLALDGHQLLAGGEVDLKNQVTPLDILSKTRVSEDNITESQHMLVAEIMVSDQDDCAPVGCSMYARCISEGEDATCQCLKGFAGDGKLCSDIDECEMGVPVCPPASSKCINTEGGYVCRCSEGYQGDGIHCLDIDECQLGEHSCGENASCTNTEGGYTCMCAGRLSEPGLICPDSTPPPHLREDDHHYSVRNSDSECPLSHDGYCLHDGVCMYIEALDKYACNCVVGYIGERCQYRDLKWWELRHAGHGQQQKVIVVAVCVVVLVMLLLLSLWGAHYYRTQKLLSKNPKNPYEESSRDVRSRRPADTEDGMSSCPQPWFVVIKEHQDLKNGGQPVAGEDGQAADGSMQPTSWRQEPQLCGMGTEQGCWIPVSSDKGSCPQVMERSFHMPSYGTQTLEGGVEKPHSLLSANPLWQQRALDPPHQMELTQ
modifications: Pro-epidermal growth factor
notes: as for B1
- expression of C/EBPα [1]: not observed to be expressed
- expression of FOXA2 [1]: not observed to be expressed
- expression of GATA4 [1]: not observed to be expressed
- expression of GATA6 [1]: observed to be expressed
- expression of HEX [1]: not observed to be expressed
- α-fetoprotein/RPL19 ratio (mRNA expression) ([2]; FIG. 3-1): 139±13
- DLK-1/RPL19 ratio (mRNA expression) ([2]; FIG. 3-2): 59±7
